The results in this text go back to paper PMC7215194 (Heliyon, 2020).

The experiment concerns the target dansyl-calmodulin (recombinant rat CaM, dansylated) (rat, UniProt P0DP29 1-149, dansylated with dansyl chloride). The experiment in a line: other fluorescence titration.

Regarding RKLWKRFFCFLRRS, the binding result was “binds”.
